Target: CHD4 PHD2 finger, wild type (UniProt Q14839 446-501)
Experiment: other fluorescence titration + NMR titration

Kd: 2000 µM
Binder: ARTKQTARKSTG (trimethyl-lysine at 4) [H3K4me3 peptide (12-mer histone tail peptide)]

Source: article PMC2885444 (The Biochemical journal, 2009)
